Measured values published in patent US20170165339A1.

Biological target: HLA-A*24 (human)
Experiment: UV peptide-exchange ELISA, yield grade

Binder | peptide exchange yield
TYELRYFQI [… (SEQ ID NO: 204)] | > 75%
IYATEAHVF [… (SEQ ID NO: 201)] | 50 to 75%
VYWDSAGAAHF [… (SEQ ID NO: 202)] | > 75%
YYGPSLFLL [… (SEQ ID NO: 200)] | 50 to 75%
AYVVFVSTL [… (SEQ ID NO: 207)] | 20 to 49%
YYKSTSSAF [… (SEQ ID NO: 218)] | 50 to 75%
TYKDEGNDYF [… (SEQ ID NO: 209)] | 50 to 75%
RYAEEVGIF [… (SEQ ID NO: 199)] | 50 to 75%

Continued, values first:

peptide exchange yield | Binder
50 to 75% | TFSVSSHLF [… (SEQ ID NO: 222)]
50 to 75% | NYYEVHKELF [… (SEQ ID NO: 270)]
50 to 75% | LYITEPKTI [… (SEQ ID NO: 287)]
> 75% | VYQGHTALL [… (SEQ ID NO: 277)]
50 to 75% | YFIDSTNLKTHF [… (SEQ ID NO: 269)]
50 to 75% | HYPPVQVLF [… (SEQ ID NO: 285)]
50 to 75% | QYLGQIQHI [… (SEQ ID NO: 268)]
20 to 49% | PYRLIFEKF [… (SEQ ID NO: 281)]
